From PMC11099923

Tests used:
[1] = molecular target: human α7nAChR deletion mutant Δ419-423, His-tagged (human) (UniProt P36544); assay: pull-down; His-tag α7nAChR (~3 μM) as bait mixed with strep-tag PICK1 PDZ (~10 μM), Ni-NTA resin, overnight at 4°C, 10 mM phosphate pH 7.8, 150 mM NaCl, 0.05% LDAO, two washes with 50 mM imidazole, elution with 500 mM imidazole, SDS-PAGE, band intensities
[2] = molecular target: human α7nAChR deletion mutant Δ428-432, His-tagged (human) (UniProt P36544); assay: as above
α7nAChR (Homo sapiens) = α7nAChR (Homo sapiens) (UniProt P36544); conditions: cited from earlier work

| Substance | reduction of pulldown compared to WT α7nAChR [1] [%] | reduction of pulldown compared to WT α7nAChR [2] [%] | Kd (α7nAChR (Homo sapiens)) [µM] |
| --- | --- | --- | --- |
| PDZ domain of human PICK1 (Protein Interacting with C-kinase 1), strep-tagged (from UniProt Q9NRD5 19-110) (domain or fragment) | 50 | 85 |  |
| PICK1 PDZ (from UniProt Q9NRD5) |  |  | 3 |
